Each block holds one binder with its values, some of them ahead of it.
B3: C/EBPβ-PThr^217 (mouse C/EBPβ phosphorylated on Thr217) (other)
chain: MHRLLAWDAACLPPPPAAFRPMEVANFYYEPDCLAYGAKAARAAPRAPAAEPAIGEHERAIDFSPYLEPLAPAADFAAPAPAHHDFLSDLFADDYGAKPSKKPADYGYVSLGRAGAKAAPPACFPPPPPAALKAEPGFEPADCKRADDAPAMAAGFPFALRAYLGYQATPSGSSGSLSTSSSSSPPGTPSPADAKAAPAACFAGPPAAPAKAKAKKTVDKLSDEYKMRRERNNIAVRKSRDKAKMRNLETQHKVLELTAENERLQKKVEQLSRELSTLRNLFKQLPEPLLASAGHC
modifications: phosphothreonine at 217
notes: Endogenous, phosphorylated in stellate cells after CCl4 or on collagen type I
B4: purified recombinant procaspase 8 (human, Alexis Biochemicals) (enzyme, UniProt Q14790 217-479, looked up)
chain: SESQTLDKVYQMKSKPRGYCLIINNHNFAKAREKVPKLHSIRDRNGTHLDAGALTTTFEELHFEIKPHDDCTVEQIYEILKIYQLMDHSNMDCFICCILSHGDKGIIYGTDGQEAPIYELTSQFTGLKCPSLAGKPKVFFIQACQGDNYQKGIPVETDSEEQPYLEMDLSSPQTRYIPDEADFLLGMATVNNCVSYRNPAEGTWYIQSLCQSLRERCPRGDDILTILTEVNYEVSNKDDKKNMGKQMPQPTFTLRKKLVFPSD
notes: also called recombinant caspase 8; procaspases 8; not shown: 21 amino acid linker at the N-terminus from the expression vector

Assays:
[1] = molecular target: B3; test: C/EBPβ immunoprecipitation and immunoblot, stellate cells of CCl4-treated C/EBPβ+/+ mice
[2] = molecular target: T1, procaspase 1 (endogenous, mouse hepatic stellate cells) (mouse, UniProt P29452 1-402); test: anti-HA co-immunoprecipitation and immunoblot, transfected activated stellate cells
T1 construct: also called procaspases 1
T1 sequence (looked up): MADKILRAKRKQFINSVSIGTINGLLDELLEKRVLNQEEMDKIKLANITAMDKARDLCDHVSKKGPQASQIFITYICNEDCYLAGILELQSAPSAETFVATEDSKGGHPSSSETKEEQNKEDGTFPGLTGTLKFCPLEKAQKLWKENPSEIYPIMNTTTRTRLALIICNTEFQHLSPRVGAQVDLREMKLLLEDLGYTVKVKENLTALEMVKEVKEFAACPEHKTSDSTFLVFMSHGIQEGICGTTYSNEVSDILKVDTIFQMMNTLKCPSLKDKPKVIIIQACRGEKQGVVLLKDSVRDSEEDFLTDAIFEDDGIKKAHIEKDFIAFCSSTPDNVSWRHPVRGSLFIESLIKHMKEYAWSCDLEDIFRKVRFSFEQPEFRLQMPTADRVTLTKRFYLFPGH

[3] = molecular target: T2, procaspase 8 (endogenous, mouse hepatic stellate cells) (mouse, UniProt O89110 1-480); test: as above
T2 construct: also called procaspases 8
T2 sequence (looked up): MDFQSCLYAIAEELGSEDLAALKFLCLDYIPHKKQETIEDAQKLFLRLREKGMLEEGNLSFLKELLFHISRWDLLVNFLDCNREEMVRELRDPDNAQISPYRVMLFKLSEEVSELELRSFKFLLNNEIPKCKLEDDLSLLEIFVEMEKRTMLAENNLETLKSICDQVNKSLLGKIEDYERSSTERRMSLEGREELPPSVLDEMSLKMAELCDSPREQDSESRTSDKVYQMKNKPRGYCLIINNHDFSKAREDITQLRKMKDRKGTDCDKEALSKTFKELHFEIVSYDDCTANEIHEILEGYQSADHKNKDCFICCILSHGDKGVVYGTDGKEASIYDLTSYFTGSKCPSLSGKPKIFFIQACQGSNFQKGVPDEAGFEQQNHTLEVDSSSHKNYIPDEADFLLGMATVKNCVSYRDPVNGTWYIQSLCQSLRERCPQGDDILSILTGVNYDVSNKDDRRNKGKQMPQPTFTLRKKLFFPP

[4] = molecular target: B4; test: co-immunoprecipitation of purified recombinant proteins (C/EBPβ peptides 200 µM), immunoblot, densitometry; reference C/EBPβ-HA-Ala217
[5] = molecular target: T3, procaspase 7 (endogenous, mouse hepatic stellate cells) (mouse, UniProt P97864 1-303); test: C/EBPβ immunoprecipitation and immunoblot, stellate cells of CCl4-treated C/EBPβ+/+ mice
T3 construct: also called effector procaspase 7
T3 sequence (looked up): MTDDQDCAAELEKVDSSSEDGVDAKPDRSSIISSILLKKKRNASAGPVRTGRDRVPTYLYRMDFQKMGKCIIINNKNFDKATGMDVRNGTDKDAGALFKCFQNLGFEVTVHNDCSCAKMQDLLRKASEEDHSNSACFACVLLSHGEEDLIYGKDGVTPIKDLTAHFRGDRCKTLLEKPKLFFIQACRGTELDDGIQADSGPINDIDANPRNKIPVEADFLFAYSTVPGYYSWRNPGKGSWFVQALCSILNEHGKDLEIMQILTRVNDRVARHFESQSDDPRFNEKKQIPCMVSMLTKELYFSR

[6] = molecular target: T4, procaspase 9 (endogenous, mouse hepatic stellate cells) (mouse, UniProt Q8C3Q9 1-454); test: as above
T4 construct: also called effector procaspase 9
T4 sequence (looked up): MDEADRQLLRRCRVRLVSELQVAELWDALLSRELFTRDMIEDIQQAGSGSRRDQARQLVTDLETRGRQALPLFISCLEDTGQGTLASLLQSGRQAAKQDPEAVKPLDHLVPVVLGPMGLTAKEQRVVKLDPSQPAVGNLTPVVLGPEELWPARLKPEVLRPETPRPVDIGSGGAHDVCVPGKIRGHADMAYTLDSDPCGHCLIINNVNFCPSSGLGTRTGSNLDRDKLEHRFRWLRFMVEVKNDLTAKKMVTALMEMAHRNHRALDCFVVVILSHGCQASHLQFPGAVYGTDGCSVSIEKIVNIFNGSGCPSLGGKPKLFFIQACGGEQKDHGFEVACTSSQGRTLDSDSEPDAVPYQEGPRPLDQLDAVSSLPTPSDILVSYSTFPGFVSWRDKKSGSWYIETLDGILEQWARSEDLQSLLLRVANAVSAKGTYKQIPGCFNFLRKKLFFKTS

C/EBPβ-HA-Ala^217 = molecular target: T5, C/EBPβ-HA-Ala^217 (mouse, UniProt P28033 1-296, limits assumed); test: co-immunoprecipitation of purified recombinant proteins
T5 construct: not shown: HA (hemagglutinin) tag
T5 sequence: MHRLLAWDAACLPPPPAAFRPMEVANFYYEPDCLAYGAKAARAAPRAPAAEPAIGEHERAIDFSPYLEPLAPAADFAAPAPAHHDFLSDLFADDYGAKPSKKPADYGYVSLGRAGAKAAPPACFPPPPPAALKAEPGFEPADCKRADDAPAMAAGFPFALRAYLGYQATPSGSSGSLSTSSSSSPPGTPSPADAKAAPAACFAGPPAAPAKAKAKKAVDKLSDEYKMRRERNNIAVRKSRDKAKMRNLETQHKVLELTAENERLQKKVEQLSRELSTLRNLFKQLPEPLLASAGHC

- binding result [1]: no binding
B1: procaspase 3 (endogenous, mouse hepatic stellate cells) (enzyme, UniProt P70677 1-277, looked up)
chain: MENNKTSVDSKSINNFEVKTIHGSKSVDSGIYLDSSYKMDYPEMGICIIINNKNFHKSTGMSSRSGTDVDAANLRETFMGLKYQVRNKNDLTREDILELMDSVSKEDHSKRSSFVCVILSHGDEGVIYGTNGPVELKKLTSFFRGDYCRSLTGKPKLFIIQACRGTELDCGIETDSGTDEEMACQKIPVEADFLYAYSTAPGYYSWRNSKDGSWFIQSLCSMLKLYAHKLEFMHILTRVNRKVATEFESFSLDSTFHAKKQIPCIVSMLTKELYFYH
notes: also called effector procaspase 3

B2: C/EBPβ-HA-Glu^217 (other, not shown: small tags and cut ends)
chain: MHRLLAWDAACLPPPPAAFRPMEVANFYYEPDCLAYGAKAARAAPRAPAAEPAIGEHERAIDFSPYLEPLAPAADFAAPAPAHHDFLSDLFADDYGAKPSKKPADYGYVSLGRAGAKAAPPACFPPPPPAALKAEPGFEPADCKRADDAPAMAAGFPFALRAYLGYQATPSGSSGSLSTSSSSSPPGTPSPADAKAAPAACFAGPPAAPAKAKAKKEVDKLSDEYKMRRERNNIAVRKSRDKAKMRNLETQHKVLELTAENERLQKKVEQLSRELSTLRNLFKQLPEPLLASAGHC
- binding result [2]: binds
- binding result [3]: binds
- fold more co-immunoprecipitated than the Ala^217 peptides (densitometry) [4]: 12 fold

Binder: B3
- binding result [5]: no binding
- binding result [6]: no binding

Binder: B4
- binding result (C/EBPβ-HA-Ala^217): no binding

Source: patent US20100035825A1 (University of California, published 2010)
